B1: Nucleoporin p54 (Homo sapiens), Q7Z3B4 (parent)
chain: MAFNFGAPSGTSGTAAATAAPAGGFGGFGTTSTTAGSAFSFSAPTNTGTTGLFGGTQNKGFGFGTGFGTTTGTSTGLGTGLGTGLGFGGFNTQQQQQTTLGGLFSQPTQAPTQSNQLINTASALSAPTLLGDERDAILAKWNQLQAFWGTGKGYFNNNIPPVEFTQENPFCRFKAVGYSCMPSNKDEDGLVVLVFNKKETEIRSQQQQLVESLHKVLGGNQTLTVNVEGTKTLPDDQTEVVIYVVERSPNGTSRRVPATTLYAHFEQANIKTQLQQLGVTLSMTRTELSPAQIKQLLQNPPAGVDPIIWEQAKVDNPDSEKLIPVPMVGFKELLRRLKVQDQMTKQHQTRLDIISEDISELQKNQTTSVAKIAQYKRKLMDLSHRTLQVLIKQEIQRKSGYAIQADEEQLRVQLDTIQGELNAPTQFKGRLNELMSQIRMQNHFGAVRSEERYYIDADLLREIKQHLKQQQEGLSHLISIIKDDLEDIKLVEHGLNETIHIRGGVFS
B2: Proto-oncogene serine/threonine-protein kinase mos (Homo sapiens), P00540 (parent)
chain: MPSPLALRPYLRSEFSPSVDARPCSSPSELPAKLLLGATLPRAPRLPRRLAWCSIDWEQVCLLQRLGAGGFGSVYKATYRGVPVAIKQVNKCTKNRLASRRSFWAELNVARLRHDNIVRVVAASTRTPAGSNSLGTIIMEFGGNVTLHQVIYGAAGHPEGDAGEPHCRTGGQLSLGKCLKYSLDVVNGLLFLHSQSIVHLDLKPANILISEQDVCKISDFGCSEKLEDLLCFQTPSYPLGGTYTHRAPELLKGEGVTPKADIYSFAITLWQMTTKQAPYSGERQHILYAVVAYDLRPSLSAAVFEDSLPGQRLGDVIQRCWRPSAAQRPSARLLLVDLTSLKAELG
partner: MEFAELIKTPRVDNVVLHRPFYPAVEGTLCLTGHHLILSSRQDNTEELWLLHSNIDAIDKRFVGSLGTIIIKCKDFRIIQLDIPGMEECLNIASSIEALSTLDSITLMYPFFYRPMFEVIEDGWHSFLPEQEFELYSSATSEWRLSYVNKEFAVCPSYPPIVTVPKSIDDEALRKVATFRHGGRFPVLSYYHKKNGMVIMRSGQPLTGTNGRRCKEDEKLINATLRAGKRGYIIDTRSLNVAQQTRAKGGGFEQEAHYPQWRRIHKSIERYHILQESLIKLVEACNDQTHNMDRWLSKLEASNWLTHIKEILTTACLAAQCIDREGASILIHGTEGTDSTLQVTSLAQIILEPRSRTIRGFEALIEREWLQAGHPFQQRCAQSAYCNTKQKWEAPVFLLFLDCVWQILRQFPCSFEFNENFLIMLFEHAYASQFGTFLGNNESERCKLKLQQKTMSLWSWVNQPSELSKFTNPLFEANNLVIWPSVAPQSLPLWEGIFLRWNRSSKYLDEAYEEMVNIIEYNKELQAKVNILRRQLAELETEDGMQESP
B3: Embryonal Fyn-associated substrate (Homo sapiens), O43281 (parent)
chain: MAIATSTQLARALYDNTAESPQELSFRRGDVLRVLQREGAGGLDGWCLCSLHGQQGIVPANRVKLLPAGPAPKPSLSPASPAQPGSPYPAPDHSNEDQEVYVVPPPARPCPTSGPPAGPCPPSPDLIYKIPRASGTQLAAPRDALEVYDVPPTALRVPSSGPYDCPASFSHPLTRVAPQPPGEDDAPYDVPLTPKPPAELEPDLEWEGGREPGPPIYAAPSNLKRASALLNLYEAPEELLADGEGGGTDEGIYDVPLLGPEAPPSPEPPGALASHDQDTLAQLLARSPPPPHRPRLPSAESLSRRPLPALPVPEAPSPSPVPSPAPGRKGSIQDRPLPPPPPRLPGYGGPKVEGDPEGREMEDDPAGHHNEYEGIPMAEEYDYVHLKGMDKAQGSRPPDQACTGDPELPERGMPAPQEALSPGEPLVVSTGDLQLLYFYAGQCQSHYSALQAAVAALMSSTQANQPPRLFVPHSKRVVVAAHRLVFVGDTLGRLAASAPLRAQVRAAGTALGQALRATVLAVKGAALGYPSSPAIQEMVQCVTELAGQALQFTTLLTSLAP
partner: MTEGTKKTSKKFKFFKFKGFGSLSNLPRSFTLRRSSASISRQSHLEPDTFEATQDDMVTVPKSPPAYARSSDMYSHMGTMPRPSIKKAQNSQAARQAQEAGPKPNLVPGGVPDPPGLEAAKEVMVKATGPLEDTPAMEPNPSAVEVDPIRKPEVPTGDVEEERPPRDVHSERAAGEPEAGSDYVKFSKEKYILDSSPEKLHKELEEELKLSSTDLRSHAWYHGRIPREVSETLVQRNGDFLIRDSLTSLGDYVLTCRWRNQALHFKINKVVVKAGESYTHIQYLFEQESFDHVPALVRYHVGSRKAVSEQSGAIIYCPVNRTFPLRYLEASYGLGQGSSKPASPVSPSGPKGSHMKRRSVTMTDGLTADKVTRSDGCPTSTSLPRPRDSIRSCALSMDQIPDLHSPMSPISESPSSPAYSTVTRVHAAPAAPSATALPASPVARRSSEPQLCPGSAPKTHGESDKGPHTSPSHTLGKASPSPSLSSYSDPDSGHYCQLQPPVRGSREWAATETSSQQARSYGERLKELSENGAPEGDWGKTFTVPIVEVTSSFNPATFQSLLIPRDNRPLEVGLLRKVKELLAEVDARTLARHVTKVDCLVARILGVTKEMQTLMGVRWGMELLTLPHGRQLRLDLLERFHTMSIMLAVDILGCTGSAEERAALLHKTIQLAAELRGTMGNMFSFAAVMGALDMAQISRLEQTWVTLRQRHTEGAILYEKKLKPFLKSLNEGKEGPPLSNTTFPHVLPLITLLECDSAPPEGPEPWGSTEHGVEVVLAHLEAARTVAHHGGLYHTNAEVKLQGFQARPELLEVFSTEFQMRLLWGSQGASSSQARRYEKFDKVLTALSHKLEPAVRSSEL
B4: Oxidative stress-induced growth inhibitor 1 (Homo sapiens), Q9UJX0 (parent)
chain: MSSSRKDHLGASSSEPLPVIIVGNGPSGICLSYLLSGYTPYTKPDAIHPHPLLQRKLTEAPGVSILDQDLDYLSEGLEGRSQSPVALLFDALLRPDTDFGGNMKSVLTWKHRKEHAIPHVVLGRNLPGGAWHSIEGSMVILSQGQWMGLPDLEVKDWMQKKRRGLRNSRATAGDIAHYYRDYVVKKGLGHNFVSGAVVTAVEWGTPDPSSCGAQDSSPLFQVSGFLTRNQAQQPFSLWARNVVLATGTFDSPARLGIPGEALPFIHHELSALEAATRVGAVTPASDPVLIIGAGLSAADAVLYARHYNIPVIHAFRRAVDDPGLVFNQLPKMLYPEYHKVHQMMREQSILSPSPYEGYRSLPRHQLLCFKEDCQAVFQDLEGVEKVFGVSLVLVLIGSHPDLSFLPGAGADFAVDPDQPLSAKRNPIDVDPFTYQSTRQEGLYAMGPLAGDNFVRFVQGGALAVASSLLRKETRKPP
B5: Docking protein 3 (Homo sapiens), Q7L591 (parent)
chain: MTRGARLRSDARAQLNQLSLDGGTGSGQKGKCEEFPSSLSSVSPGLEAAALLLAVTMDPLETPIKDGILYQQHVKFGKKCWRKVWALLYAGGPSGVARLESWEVRDGGLGAAGDRSAGPGRRGERRVIRLADCVSVLPADGESCPRDTGAFLLTTTERSHLLAAQHRQAWMGPICQLAFPGTGEASSGSTDAQSPKRGLVPMEENSIYSSWQEVGEFPVVVQRTEAATRCQLKGPALLVLGPDAIQLREAKGTQALYSWPYHFLRKFGSDKGVFSFEAGRRCHSGEGLFAFSTPCAPDLCRAVAGAIARQRERLPELTRPQPCPLPRATSLPSLDTPGELREMPPGPEPPTSRKMHLAEPGPQSLPLLLGPEPNDLASGLYASVCKRASGPPGNEHLYENLCVLEASPTLHGGEPEPHEGPGSRSPTTSPIYHNGQDLSWPGPANDSTLEAQYRRLLELDQVEGTGRPDPQAGFKAKLVTLLSRERRKGPAPCDRP
B6: Tuftelin-interacting protein 11 (Homo sapiens), Q9UBB9 (parent)
chain: MSLSHLYRDGEGRIDDDDDERENFEITDWDLQNEFNPNRQRHWQTKEEATYGVWAERDSDDERPSFGGKRARDYSAPVNFISAGLKKGAAEEAELEDSDDEEKPVKQDDFPKDFGPRKLKTGGNFKPSQKGFAGGTKSFMDFGSWERHTKGIGQKLLQKMGYVPGRGLGKNAQGIINPIEAKQRKGKGAVGAYGSERTTQSMQDFPVVDSEEEAEEEFQKELSQWRKDPSGSKKKPKYSYKTVEELKAKGRISKKLTAPQKELSQVKVIDMTGREQKVYYSYSQISHKHNVPDDGLPLQSQQLPQSGKEAKAPGFALPELEHNLQLLIDLTEQEIIQNDRQLQYERDMVVNLFHELEKMTEVLDHEERVISNLSKVLEMVEECERRMQPDCSNPLTLDECARIFETLQDKYYEEYRMSDRVDLAVAIVYPLMKEYFKEWDPLKDCTYGTEIISKWKSLLENDQLLSHGGQDLSADAFHRLIWEVWMPFVRNIVTQWQPRNCDPMVDFLDSWVHIIPVWILDNILDQLIFPKLQKEVENWNPLTDTVPIHSWIHPWLPLMQARLEPLYSPIRSKLSSALQKWHPSDSSAKLILQPWKDVFTPGSWEAFMVKNIVPKLGMCLGELVINPHQQHMDAFYWVIDWEGMISVSSLVGLLEKHFFPKWLQVLCSWLSNSPNYEEITKWYLGWKSMFSDQVLAHPSVKDKFNEALDIMNRAVSSNVGAYMQPGARENIAYLTHTERRKDFQYEAMQERREAENMAQRGIGVAASSVPMNFKDLIETKAEEHNIVFMPVIGKRHEGKQLYTFGRIVIYIDRGVVFVQGEKTWVPTSLQSLIDMAK
partner: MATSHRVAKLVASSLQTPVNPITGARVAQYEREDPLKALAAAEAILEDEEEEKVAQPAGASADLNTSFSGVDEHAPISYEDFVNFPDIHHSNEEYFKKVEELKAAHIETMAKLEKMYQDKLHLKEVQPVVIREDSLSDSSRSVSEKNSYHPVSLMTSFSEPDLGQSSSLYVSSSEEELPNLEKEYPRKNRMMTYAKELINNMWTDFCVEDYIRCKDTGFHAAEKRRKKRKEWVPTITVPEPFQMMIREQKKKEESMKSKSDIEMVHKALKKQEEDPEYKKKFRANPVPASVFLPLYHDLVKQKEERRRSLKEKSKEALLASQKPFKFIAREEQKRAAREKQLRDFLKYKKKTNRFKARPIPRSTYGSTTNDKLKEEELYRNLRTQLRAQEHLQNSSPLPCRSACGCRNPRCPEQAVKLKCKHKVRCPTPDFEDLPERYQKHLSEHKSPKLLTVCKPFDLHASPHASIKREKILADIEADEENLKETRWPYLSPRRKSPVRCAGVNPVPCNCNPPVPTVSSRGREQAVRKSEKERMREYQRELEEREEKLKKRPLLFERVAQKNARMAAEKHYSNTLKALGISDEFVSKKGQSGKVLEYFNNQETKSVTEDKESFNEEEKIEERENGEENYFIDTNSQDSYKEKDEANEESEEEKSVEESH

In the first test the parent is B1. The note with it: with nup62_human NUP62, P37198.
Sequence of nup62_human NUP62, P37198 (P37198 whole entry): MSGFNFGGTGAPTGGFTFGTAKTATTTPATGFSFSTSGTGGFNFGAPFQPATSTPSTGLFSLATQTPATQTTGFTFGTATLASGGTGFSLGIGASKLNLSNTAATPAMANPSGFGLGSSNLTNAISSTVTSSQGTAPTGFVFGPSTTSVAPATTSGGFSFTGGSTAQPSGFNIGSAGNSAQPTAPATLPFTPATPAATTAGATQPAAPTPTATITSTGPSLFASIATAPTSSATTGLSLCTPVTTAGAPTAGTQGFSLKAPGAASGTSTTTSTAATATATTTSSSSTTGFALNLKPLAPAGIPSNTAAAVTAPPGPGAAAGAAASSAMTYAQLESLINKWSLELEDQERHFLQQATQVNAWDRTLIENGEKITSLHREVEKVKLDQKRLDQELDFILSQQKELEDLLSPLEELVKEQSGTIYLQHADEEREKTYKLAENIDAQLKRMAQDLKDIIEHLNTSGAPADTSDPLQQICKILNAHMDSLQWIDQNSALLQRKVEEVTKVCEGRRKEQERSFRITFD
As to N250S, the “effect of a mutation on the interaction” value is “with no effect”.

The variants in another test derive from B1. The note with it: with nup58_human NUP58, Q9BVL2.
Sequence of nup58_human NUP58, Q9BVL2 (Q9BVL2 whole entry): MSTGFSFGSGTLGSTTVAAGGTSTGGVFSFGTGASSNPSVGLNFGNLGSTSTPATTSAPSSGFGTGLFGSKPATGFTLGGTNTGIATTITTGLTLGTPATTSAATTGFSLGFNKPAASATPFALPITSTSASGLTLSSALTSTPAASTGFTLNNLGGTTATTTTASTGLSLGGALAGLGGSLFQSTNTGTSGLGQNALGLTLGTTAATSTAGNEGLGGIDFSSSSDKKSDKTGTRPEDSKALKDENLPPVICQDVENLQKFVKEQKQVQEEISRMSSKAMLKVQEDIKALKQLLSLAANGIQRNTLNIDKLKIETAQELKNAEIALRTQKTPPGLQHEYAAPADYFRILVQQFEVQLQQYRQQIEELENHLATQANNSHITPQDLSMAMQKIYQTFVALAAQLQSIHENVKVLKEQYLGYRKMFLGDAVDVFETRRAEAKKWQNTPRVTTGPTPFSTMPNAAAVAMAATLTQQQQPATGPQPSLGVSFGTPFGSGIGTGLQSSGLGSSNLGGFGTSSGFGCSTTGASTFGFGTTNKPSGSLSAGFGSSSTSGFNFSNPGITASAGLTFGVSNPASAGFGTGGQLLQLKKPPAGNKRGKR
Turning to N250S, the “effect of a mutation on the interaction” value is given as “with no effect”.

In a further test the parent is B1. The note with it: with hgs_human HGS.
Regarding N250S, the “effect of a mutation on the interaction” value is given as “with no effect”.

The variants in the next test derive from B1. The note with it: with KRT15, P19012.
Sequence of KRT15, P19012 (P19012 whole entry): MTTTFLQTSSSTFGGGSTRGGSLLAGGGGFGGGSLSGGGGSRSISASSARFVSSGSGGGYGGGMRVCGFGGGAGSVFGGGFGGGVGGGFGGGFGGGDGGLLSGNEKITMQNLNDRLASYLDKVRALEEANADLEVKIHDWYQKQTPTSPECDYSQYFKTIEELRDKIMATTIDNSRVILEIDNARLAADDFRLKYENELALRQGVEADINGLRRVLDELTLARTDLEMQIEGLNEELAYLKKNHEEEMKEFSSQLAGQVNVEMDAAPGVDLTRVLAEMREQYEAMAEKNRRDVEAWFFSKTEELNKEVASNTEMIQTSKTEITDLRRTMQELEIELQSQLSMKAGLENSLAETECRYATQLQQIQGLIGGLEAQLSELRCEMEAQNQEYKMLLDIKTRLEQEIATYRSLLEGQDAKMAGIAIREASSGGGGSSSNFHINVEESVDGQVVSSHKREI
Consider N250S, for which the “effect of a mutation on the interaction” value is “with no effect”.

Variants of B2 are the subject of the next test. The note with it: with mtmr9_human MTMR9, Q96QG7.
On to I55V, for which the “effect of a mutation on the interaction” value is reported as “with no effect”.

In a further test the parent is B3. The note with it: with sh2d3_human SH2D3C.
As for A140D, the “effect of a mutation on the interaction” value was “with no effect”.
Still for that read-out and setting: to S265F belongs “with no effect”.

Another test covers variants of B4. Conditions: with htf4_human TCF12, Q99081.
Sequence of htf4_human TCF12, Q99081 (Q99081 whole entry): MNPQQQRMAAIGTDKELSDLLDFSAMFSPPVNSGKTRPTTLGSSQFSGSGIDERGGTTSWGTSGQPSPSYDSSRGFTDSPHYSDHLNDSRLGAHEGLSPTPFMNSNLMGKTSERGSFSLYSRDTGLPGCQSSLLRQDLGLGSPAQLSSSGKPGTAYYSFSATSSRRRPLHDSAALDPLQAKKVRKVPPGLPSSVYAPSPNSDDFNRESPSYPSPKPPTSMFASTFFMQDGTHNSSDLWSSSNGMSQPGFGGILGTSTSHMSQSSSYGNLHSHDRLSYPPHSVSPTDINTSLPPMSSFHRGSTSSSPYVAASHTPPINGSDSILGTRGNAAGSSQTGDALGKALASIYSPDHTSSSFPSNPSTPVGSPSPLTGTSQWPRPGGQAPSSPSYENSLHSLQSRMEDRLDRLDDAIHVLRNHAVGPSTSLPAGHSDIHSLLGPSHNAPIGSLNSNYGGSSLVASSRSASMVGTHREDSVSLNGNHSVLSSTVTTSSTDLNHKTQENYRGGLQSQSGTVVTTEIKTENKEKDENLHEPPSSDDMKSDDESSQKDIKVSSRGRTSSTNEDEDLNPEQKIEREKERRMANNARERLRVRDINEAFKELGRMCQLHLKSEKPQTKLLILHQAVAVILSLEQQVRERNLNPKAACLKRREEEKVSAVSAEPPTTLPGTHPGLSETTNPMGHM
For the variant S236L, the “effect of a mutation on the interaction” value was “disrupting interaction strength”.
Consider D320N, for which the “effect of a mutation on the interaction” value is “with no effect”.

The variants in the next test derive from B4. Conditions: with itf2_human TCF4, P15884.
Sequence of itf2_human TCF4, P15884 (P15884 whole entry): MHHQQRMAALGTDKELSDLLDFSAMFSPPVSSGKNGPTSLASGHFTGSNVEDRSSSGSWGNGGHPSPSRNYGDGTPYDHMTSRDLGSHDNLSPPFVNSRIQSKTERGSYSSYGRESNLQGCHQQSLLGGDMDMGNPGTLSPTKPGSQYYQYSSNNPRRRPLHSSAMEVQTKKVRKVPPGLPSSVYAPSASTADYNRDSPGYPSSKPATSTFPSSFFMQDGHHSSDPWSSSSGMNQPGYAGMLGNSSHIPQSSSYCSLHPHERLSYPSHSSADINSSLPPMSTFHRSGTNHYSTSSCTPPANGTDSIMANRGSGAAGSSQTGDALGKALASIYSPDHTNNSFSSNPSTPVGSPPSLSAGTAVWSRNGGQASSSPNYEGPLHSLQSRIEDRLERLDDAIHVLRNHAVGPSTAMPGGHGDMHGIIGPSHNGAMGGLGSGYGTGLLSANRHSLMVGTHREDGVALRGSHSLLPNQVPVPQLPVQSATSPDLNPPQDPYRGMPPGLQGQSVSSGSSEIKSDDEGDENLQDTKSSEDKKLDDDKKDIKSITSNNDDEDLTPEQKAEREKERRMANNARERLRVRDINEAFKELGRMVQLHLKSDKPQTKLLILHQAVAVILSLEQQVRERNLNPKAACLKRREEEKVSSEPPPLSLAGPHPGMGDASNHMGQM
As for S236L, the “effect of a mutation on the interaction” value was “with no effect”.
Still for that read-out and setting: to D320N belongs “with no effect”.

Another test covers variants of B4. Conditions: with ikzf3_human IKZF3, Q9UKT9.
Sequence of ikzf3_human IKZF3, Q9UKT9 (Q9UKT9 whole entry): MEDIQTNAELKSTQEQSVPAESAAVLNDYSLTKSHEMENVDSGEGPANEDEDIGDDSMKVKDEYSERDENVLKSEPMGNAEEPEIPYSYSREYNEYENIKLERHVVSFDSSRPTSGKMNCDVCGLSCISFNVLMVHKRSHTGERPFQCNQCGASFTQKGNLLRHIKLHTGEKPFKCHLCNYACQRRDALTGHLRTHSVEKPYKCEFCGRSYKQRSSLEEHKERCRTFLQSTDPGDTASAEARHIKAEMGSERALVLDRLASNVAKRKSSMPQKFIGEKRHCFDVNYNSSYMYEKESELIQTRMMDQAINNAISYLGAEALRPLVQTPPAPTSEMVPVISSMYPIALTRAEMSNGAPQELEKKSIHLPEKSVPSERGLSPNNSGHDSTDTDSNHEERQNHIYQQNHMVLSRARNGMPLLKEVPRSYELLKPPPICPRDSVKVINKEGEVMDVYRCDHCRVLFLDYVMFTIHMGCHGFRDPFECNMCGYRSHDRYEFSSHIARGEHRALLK
For the variant S236L, the “effect of a mutation on the interaction” value is reported as “disrupting interaction strength”.
Consider D320N, for which the “effect of a mutation on the interaction” value is “with no effect”.

Another test covers variants of B5. The note with it: with traf1_human TRAF1, Q13077.
Sequence of traf1_human TRAF1, Q13077 (Q13077 whole entry): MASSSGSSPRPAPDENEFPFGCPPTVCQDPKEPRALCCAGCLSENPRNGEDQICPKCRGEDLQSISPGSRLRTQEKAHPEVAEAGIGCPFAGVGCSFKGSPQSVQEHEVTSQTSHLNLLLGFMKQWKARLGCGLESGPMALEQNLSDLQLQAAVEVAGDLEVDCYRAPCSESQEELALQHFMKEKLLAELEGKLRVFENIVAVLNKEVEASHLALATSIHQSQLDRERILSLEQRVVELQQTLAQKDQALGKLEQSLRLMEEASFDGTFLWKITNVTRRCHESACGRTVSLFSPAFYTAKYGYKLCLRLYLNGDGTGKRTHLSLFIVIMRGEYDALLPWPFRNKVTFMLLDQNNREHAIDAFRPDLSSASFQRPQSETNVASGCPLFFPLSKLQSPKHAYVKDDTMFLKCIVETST
Turning to R229H, the “effect of a mutation on the interaction” value is recorded as “with no effect”.

In another test the parent is B6. Conditions: with FAM161A.
For the variant R8Q, the “effect of a mutation on the interaction” value is given as “with no effect”.
